A protein production outcome set (Wang et al. 2014)

Assay: label from the status in PepcDB records

| Sequence | protein production |
| --- | --- |
| MESPGGSAPLLGLELCAAARDSAAMAGPGAPCDPCAPAAVWKRHIVRQLRHRDRTQKALFLELVPAYNHLLEKAELLAKFSEKLKSEPKDAISTRHEDWREEVSGTGPDQVSSPASLRVKWQQEKKGLQLVCGEMAYQVVKKSAALDTLQSQLEERQDRLEALQACVVQLQEARAQQSRQLEERQAENAAQREAYETLLQQAVHQEAALRRLQEEARDLLEQLVQRKARAAAERNLRNERRERANQALVSQELKKAAKRTVSISEIPNTLEDGTKEETVALAPAALPEFSESETCEKWKRPFRSASATSLTLSRCVDVVKGLLDFKKRRGHSVGGAPEQRYQSIPVCVSAQIPSQAQDVLDAHLSEVNAVCFGPNSSLLATGGADRLIHLWNVVGGRLEANQTLEGAGGSITSVDFDPSGSQVLAATYNQAAQLWKVGETQSKETLSGHKDKVTAAKFKLTRHQAVTGSRDRTVKEWDLGRAYCSRTINVLSYCNDVVCGDHIIISGHNDQKIRFWDSRGPHCIQVIPVQGRVTSLHLSYDQLHLLSCSRDNTLKVIDLRISNIRQVFRADGFKCSSDWTKAVFSPDRSYALAGSSNGDLYIWDVNTGKLETSLQGPHCTAVNAVAWCFSGNHVVSVDQGRKVVLWH | failed |
| MKFDRHRRLRSSATMRDMVRENHVRKEDLIYPIFVVEKDDVKKEIKSLPGVYQISLNLLESELKEAYDLGIRAIMFFGVPNSKDDIGTGAYIHDGVIQQATRIAKKMYDDLLIVADTCLCEYTDHGHCGVIDDHTHDVDNDKSLPLLVKTAISQVEAGADIIAPSNMMDGFVAEIRRGLDEAGYYNIPIMSYGVKYASSFFGPFRDAADSAPSFGDRKTYQMDPANRLEALRELESDLKEGCDMMIVKPALSYLDIVRDVKNHTNVPVVAYNVSGEYSMTKAAAQNGWIDEERVVMEQMVSMKRAGADMIITYFAKDICRYLDK | failed |
| MTIVLIAFALYLLATALLTWAVLRDGNQSPARWLAPALAAVALHAGYHVLVAVRTAGGPDMHFFAALSLCGLGMAALTAVFGGRGRMAAVGVVVFPLSAILLASYHAYGHEPSSDLGWRLELHAWLALLAYATLGIAALLAIMLWLQERALRRRDFHSWLRALPPLTELETLLFRTITVGFVLLSLTLLTGLLFVQDFLAQRLLQKTVLSILSWIVFGALLIGRWRNGWRGTKAVHWTLTAMALLVLSFFGSKFVIELVLGPR | failed |
| MKFFGEIAERAGVPSVMGEILAGILFGALFLDVETGIITFFAQLGSIFLLFTAGYKEVSLRDLRPAVLVAFIPTLTQLVFAFAFGFMLGKIFNFTFLQSLFMAVALSPTAIGVVIRILIDLNYLSSRPGLVMLSSAVLDDIIAISLLSLIVTFARFNRAPSALAVLTISGKILLFLLIMYILGKYFFPRLFVHAQKMHAKEAVFSLVVMTALFSSYLAELFELHATIGAFIGGMLISEIPLAKIPDVQSKVEGLAYGILIPLFFAFIGYSIDLYALVKAGIFVPVVTLLALSGKLIGGFIGSKAIGFNFCESLAFGAGVMPRAGIELVMLTIGRGIGIIGEEIFSAMVFMVIVSILISPSALKFAIQAERKNKTGNELKVG | failed |
| MSYLDTATDLPNQTLFLEYLNIALSNARRHHAQVGVLLCQINNWSDLKRKRGDAVANAFLQEAGQKLKSNLRNGDIVSRWDKDEFIFLVSKVQDTSSLLGIAQRLMKPVLAPVTAGGRPFQPEITYGVALYPVDGEQVNDLIGHIRENLQQLLPQPTNPGSGLEHHHHHH | not failed |
| MLLQANRGLGLSAHIIDHCNLILKFPEGTNSTWYNAQFKVFEALEFKYNVCEAVLLWEQYRNMTTVLTREYLDVRPDGWLDYAAMRIAQLGADKCYNRTLCEEHLNVILPAKPPFHPRQFHKCAVVGNSGDLLKTEFGEEIDSHDAVFRDNEAPVNEKYAKYVGVKRDFRLVVRGAARNMIKILNGSDNEVLIIKSVTHRDFNEMIKRIPNPVYLFQGIVLRRGAKGTGMKSIELALSMCDIVDIYGFTVDPGYTEWTRYFSTPRKGHNPLQGRAYYQLLECLGVQITC | failed |
| MSVDQMAHYQRKLAYEMDSWDLYIALNEGQAITIVDGRSEAAFADEHIPGALNLPHKEICFNSTQMLDKSKLYVCYCDGIGCNASTKTALNLLTLGFDVRELIGGLDWWKRDGYATDGKKAQLGTKINCGC | failed |
| MGRYILGITVLVTVVVAPLEAGLSSVALLALLAAFGIGVQVIAPWFIPLVRSVDTPDDQTTETLNRLRERAGLTVRDVRVLDTEQEGTANVIVRGAPGYRRLFVTSTFLDVFDDEMATALLAVQAGRQEARVRARLIGGLLIALVPVFAALADIGPLWPLVGASLGLLVVTLWVTRRGVRAADDYAAEGVGPDTVADALERYADVHDMEPPRRRLANPFSKSPPLGNRIDRLREQAGE | failed |
| MDTLQFQKNPETAAKMSAYMKHQFVFAGIPAPERQALSKQLLKESHTWPKEKLCQEIEAYYQKTEREYQYVAIDLALQNVQRFSLEEVVAFKAYVPQKAWWDSVDAWRKFFGSWVALHLTELPTIFALFYGAENFWNRRVALNLQLMLKEKTNQDLLKKAIIYDRTTEEFFIQKAIGWSLRQYSKTNPQWVEELMKELVLSPLAQREGSKYLAKASE | not failed |
| MISLRTFLITFLVNIALLGIFWGNRMNFVDVVIFSFFSALFVSLATHILVTSRLRKLREAVARKSRFEDFLNDEITKLAEEVNSVVENSLIQEKETEKLKDIVTGFVHDVKSLVWNEVEDENLQKIIEEFYEFAKLEAGLERLRKEPVNLVELVNDVVEKFPGKVIFKYDDVVEVEADPMKLFRAFYNVIENAVKYSSGPVEVHVKKDRIIVKGPGPEIPYEVRANLFEKKKKSKGTGLGLYLAREFFEMHGFRIAYRREGNHNVFEIYTGYTGMSSVKSERDSR | not failed |
| MRIGQYQLRNRLIAAPMAGITDRPFRTLCYEMGAGLTVSEMMSSNPQVWESDKSRLRMVHIDEPGIRTVQIAGSDPKEMADAARINVESGAQIIDINMGCPAKKVNRKLAGSALLQYPDVVKSILTEVVNAVDVPVTLKIRTGWAPEHRNCEEIAQLAEDCGIQALTIHGRTRACLFNGEAEYDSIRAVKQKVSIPVIANGDITDPLKARAVLDYTGADALMIGRAAQGRPWIFREIQHYLDTGELLPPLPLAEVKRLLCAHVRELHDFYGPAKGYRIARKHVSWYLQEHAPNDQFRRTFNAIEDASEQLEALEAYFENFA | failed |
| MPVKLAQALANPLFPALDSALRSGRHIGLDELDNHAFLMDFQEYLEEFYARYNVELIRAPEGFFYLRPRSTTLIPRSVLSELDMMVGKILCYLYLSPERLANEGIFTQQELYDELLTLADEAKLLKLVNNRSTGSDVDRQKLQEKVRSSLNRLRRLGMVWFMGHDSSKFRITESVFRFGADVRAGDDPREAQRRLIRDGEAMPIENHLQLNDETEENQPDSGEEE | failed |
| MLKTVRIIILGAMCTILSAAGFDPPQPAAAKSQADEYEYPFQDPSLPVQKRVSDLLSRLTLEEKVSLMHQYQPAVPRLGIPAFKTGTEALHGVAWLGEATVFPQAFGLAHTWDRYLIKQIGSAVGDEVRGFHHLDPAANGVNVWAPVVDLLRDPRWGRNEEGYSEDPFLTGEIATAYASGLRGDHPFYLKTVPTLKHFLAYNNETDRGFSSSSIDPRNMHEYYLKPFETAISKKAAYGLMPAYNSVNDKPAILSPLLDSTVKRRWAGDDFFIVSDAFDPSGIVNDHKYYDSHEKAHAHAVKAGIDNFTDQGENPELTRNALTGALKQGLISEKDLDQALANTFSIRFRTGEFDPDELNPYSRLTDDVINSPKHQLLAKKAAEKAIVLLKNDQDLLPFNARKNESIAVIGPFGNALYEDWYSGTMPYRKTPLDEIADKIGKDRVSFAEGLEQSGFKSALTGKFVTAGRDGKQPLTAAADKLEKSAAFDAADWGESIFTLRAQANGLYVSLQDDGRLIADQKQPNGRTVKETFQFEQQSDGTFAIKNTANGKYLTAGKDGTLTAAAEKPATAAEKFSKTIIKSGTDEAVQLAKSADKAIVFVGNNPYINGRETEDRKDITLPPAQENLLKAVSKANTNTVLVVTSSYPFALNWAKAHIPAIIYSAHGGQEAGSALADILYGDVNPGGRLTQTWHTSVKELPDMMNYDIIKGKRTYKYFVGKPLFPFGHGLSYTAFRYSDLSLSSDSIKKDGSVTIRVNVTNTGGRKGDEVVQLYTSPLFKTRVKQPNLDLKDFQRVELAPKETKTVTFKLKQTDLAFWDVTRETFAVERGPYRISVGSSAADIRKTKRIFVQGETIRERNLRRKTNAEDYDDYKGVLITEESKYGGDAVKSSTTNAWIAYHDVRFKGEKRIEAKVASSGAGEIGIFLDHPQKGKQIGSLKVPDTSGLQNWKTVKASVRKSTGTHRVFFVFKGKVAIDSFQFER | failed |
| HGEQSYSIGILTDITMTKMYEVLQYKVLEALILERPLDEVMTMLCHEVERIAPEVTASILQSIGQNHLSHLAGPSLPPAYTAVISSVPISPIAGSCGTAAFRKEAVEVQDIATDPLWDNYRHLILPHGLLACWSTPIISSQGQLLGTFAFYYRQIRSPSDFHRQLVKLIANLCSLAMERELSRKQIQHLAFYDS | failed |
| MSLKTNFVKYERKDNKDLCEITLENDAGMAVKVLNYGATLEKVLLDGENMILSLNSPEDYSKERNFLGGTVGRIAGRVRAGQWKHGNEIHQLPLNDGDNHIHGGIGTDMHVWDFRPSCDSEHARVDLTLFDPDGNNDYPGNLKLHARYELDNENNLHYLLEAVSDKLTIFNPVNHTYFNLGERAEDLNLQMNADYYLPVDEAGLPDRGMAEVAGTAFDFRKTKRIGDALNSDDSQIKLRNGLDHPFILNGNNPAALLSSNKHRLIVKTNAPALVLYAGNHFNHTGIVNNIGQYDGITFEAQCPPAEGNDLGQITLLPFEKFKRTVDWKFEEGHHHHHH | not failed |
| MLNKLMWLTGKAQEDWIEKILHLRQKIWPDYQRIKNDTLFKLYSHYPLYQWLSHYNGEVVAVINSLPVALDQSLDNLPQEGLNWVLSHLESTTPLTQSNYLAAVSVTVNPAYQRLGLSKLLLNRLKASAQEAQYKALIVPARPSQKENYPLISLEDYLKWKRVDNTIFDPWLRVHAQLGGKIAYPCQRSRVITANVAQWEQWLGHPLLQTGQYLVKGGLNPITINKEKDIGIYIEPNVWVIHDL | failed |
| MELLKHLSQRQYIDGEWVESANKNTRDIINPYNQEVIFTVSEGTKEDAERAILAARRAFESGEWSQETAETRGKKVRAIADKIKEHREALARLETLDTGKTLEESYADMDDIHNVFMYFAGLADKDGGEMIDSPIPDTESKIVKEPVGVVTQITPWNYPLLQASWKIAPALATGCSLVMKPSEITPLTTIRVFELMEEVGFPKGTINLILGAGSEVGDVMSGHKEVDLVSFTGGIETGKHIMKNAANNVTNIALELGGKNPNIIFDDADFELAVDQALNGGYFHAGQVCSAGSRILVQNSIKDKFEQALIDRVKKIKLGNGFDADTEMGPVISTEHRNKIESYMDVAKAEGATIAVGGKRPDRDDLKDGLFFEPTVITNCDTSMRIVQEEVFGPVVTVEGFETEQEAIQLANDSIYGLAGAVFSKDIGKAQRVANKLKLGTVWINDFHPYFAQAPWGGYKQSGIGRELGKEGLEEYLVSKHILTNTNPQLVNWFSK | not failed |
| AAVLTQDKNTPTYGPANGKVTVIEFFDYQCVYCSRLAPVMEQVIKAHPQTRFAFKEWPIFGGRWESSLEAAKTGLQIYQQKGADAYLAYHNGIYATGHNEGKLTTADIQQQAKKAGFDAKKAADVEPVLQSINDLAQEIGLSGTPGVIVMPTTGATEASITVFPGLADKASLEAAIKKAGG | failed |
| MTSSINSSPLNAIADQALGLDDAAVPAAIEPASDEPSFASLGLSPEIVSALEAAGYVKPTPVQQRAIPAGIAGRDLLVSSPTGSGKTAAFMLPAIERFAQLQKTLAQQPRTPREPSQGDRRVRRPQPVARPGLLVLTPTRELAMQVTTAASTYGKHLKRLRTVSILGGVAYGQQLMLLAKNPEILVATPGRLLDHLERGRIDLSELKMLVLDEADRMLDMGFIDDIETIVAATPASRQTMLFSATLDGKIGSLTGRLLKDPERIEIQQRLESRTNIAQTVHYVDDRDHKDRLLDHLLRDDALDQAIIFTATKIDADQLAGRLADAGFESAALHGDLPQGARNRTIRALRERRVRVLVATDVAARGIDIPGITHVFNYDLPKFAEDYVHRIGRTGRAGRSGTAVSLVHHAEQGALKRIERFVRSPLPVNVIEGFEPRKAPARTGSTGGRGRPGGGNGGRRFGGKPGGGHAGAGRSYGGGNGGGWSGKPSGSRDGGPRRDGQRSSGPRRSNSAS | failed |
